Measurements taken from US10920254B2, “Methods and materials for producing 5 and 7-carbon monomers” (INVISTA North America S.á.r.l., priority 2015, dated 2021).

What was measured:
Format in all cases: biochemical
[1] = ω-transaminase enzyme activity assay, reverse direction (7-aminoheptanoate to pimelate semialdehyde), L-alanine formation by RP-HPLC; conditions: cell free extract; 10 mM 7-aminoheptanoate, 10 mM pyruvate, pH 7.5, 25° C., 4 h; FIG. 13
Description: (§1) A nucleotide sequence encoding an N-terminal His-tag was added to the nucleic acid sequences from Chromobacterium violaceum, Pseudomonas syringae, Rhodobacter sphaeroides, and Vibrio fluvialis encoding the ω-transaminases of SEQ ID NOs: 7, 9, 10, and 12, respectively (see FIGS. 6E-6F) such that N-terminal HIS tagged ω-transaminases could be produced. Each of the resulting modified genes was cloned into a pET21a expression vector under control of the T7 promoter and each expression vector was transformed into a BL21[DE3] E. coli host. The resulting recombinant E. coli strains were cultivated at 37° C. in a 250 mL shake flask culture containing 50 mL LB media and antibiotic selection pressure, with shaking at 230 rpm. Each culture was induced overnight at 16° C. using 1 mM IPTG.
(§2) The pellet from each induced shake flask culture was harvested via centrifugation. Each pellet was resuspended and lysed via sonication. The cell debris was separated from the supernatant via centrifugation and the cell free extract was used immediately in enzyme activity assays.
Enzyme activity assays in the reverse direction (i.e., 7-aminoheptanoate to pimelate semialdehyde) were performed in a buffer composed of a final concentration of 50 mM HEPES buffer (pH=7.5), 10 mM 7-aminoheptanoate, 10 mM pyruvate, and 100 μM pyridoxyl 5′ phosphate. Each enzyme activity assay reaction was initiated by adding cell free extract of the ω-transaminase gene product or the empty vector control to the assay buffer containing the 7-aminoheptanoate and incubated at 25° C. for 4 h, with shaking at 250 rpm. The formation of L-alanine from pyruvate was quantified via RP-HPLC.

[2] = ω-transaminase enzyme activity assay, forward direction (pimelate semialdehyde to 7-aminoheptanoate), pyruvate formation by RP-HPLC; conditions: for acceptance of pimelate semialdehyde as substrate (conversion of L-alanine to pyruvate), confirmed against the empty vector control: cell free extract, 10 mM pimelate semialdehyde, 10 mM L-alanine, pH 7.5, 25° C., 4 h, FIG. 14; for reversibility of the ω-transaminase activity: pimelate semialdehyde accepted, 7-aminoheptanoate synthesized: conclusion from forward and reverse direction assays of Example 1
Description: as §1, §2
Enzyme activity in the forward direction (i.e., pimelate semialdehyde to 7-aminoheptanoate) was confirmed for the transaminases of SEQ ID NO: 9, SEQ ID NO: 10, and SEQ ID NO: 12. Enzyme activity assays were performed in a buffer composed of a final concentration of 50 mM HEPES buffer (pH=7.5), 10 mM pimelate semialdehyde, 10 mM L-alanine, and 100 μM pyridoxyl 5′ phosphate. Each enzyme activity assay reaction was initiated by adding a cell free extract of the ω-transaminase gene product or the empty vector control to the assay buffer containing the pimelate semialdehyde and incubated at 25° C. for 4 h, with shaking at 250 rpm. The formation of pyruvate was quantified via RP-HPLC.

[3] = ω-transaminase enzyme activity assay (7-aminoheptanol to 7-oxoheptanol), L-alanine formation by RP-HPLC; conditions: for acceptance of 7-aminoheptanol as substrate (conversion of pyruvate to L-alanine), confirmed against the empty vector control: cell free extract, 10 mM 7-aminoheptanol, 10 mM pyruvate, pH 7.5, 25° C., 4 h, FIG. 17; for acceptance of 7-oxoheptanol as substrate forming 7-aminoheptanol: concluded from the reversibility of the ω-transaminase activity (Example 1)
Description: A nucleotide sequence encoding an N-terminal His-tag was added to the Chromobacterium violaceum, Pseudomonas syringae, and Rhodobacter sphaeroides nucleic acids encoding the ω-transaminases of SEQ ID NOs: 7, 9 and 10, respectively (see FIGS. 6E-6F), such that N-terminal HIS tagged ω-transaminases could be produced. The modified genes were cloned into a pET21a expression vector under the T7 promoter. Each expression vector was transformed into a BL21[DE3] E. coli host. Each resulting recombinant E. coli strain was cultivated at 37° C. in a 250 mL shake flask culture containing 50 mL LB media and antibiotic selection pressure, with shaking at 230 rpm. Each culture was induced overnight at 16° C. using 1 mM IPTG.
as §2
Enzyme activity assays in the reverse direction (i.e., 7-aminoheptanol to 7-oxoheptanol) were performed in a buffer composed of a final concentration of 50 mM HEPES buffer (pH=7.5), 10 mM 7-aminoheptanol, 10 mM pyruvate, and 100 μM pyridoxyl 5′ phosphate. Each enzyme activity assay reaction was initiated by adding cell free extract of the ω-transaminase gene product or the empty vector control to the assay buffer containing the 7-aminoheptanol and then incubated at 25° C. for 4 h, with shaking at 250 rpm. The formation of L-alanine was quantified via RP-HPLC.

[4] = carboxylate reductase enzyme activity assay (N7-acetyl-7-aminoheptanoate to N7-acetyl-7-aminoheptanal), NADPH consumption at 340 nm; conditions: purified enzyme enhanced by gene product of sfp; 2 mM N7-acetyl-7-aminoheptanoate, 1 mM ATP, 1 mM NADPH, pH 7.5, room temperature, 20 min; FIG. 10
Description: The activity of each of the N-terminal His-tagged carboxylate reductases of SEQ ID NOs: 3, 5, and 6 (see Examples 2 and 3, and FIG. 6B, FIGS. 6D-6E) for converting N7-acetyl-7-aminoheptanoate to N7-acetyl-7-aminoheptanal was assayed in triplicate in a buffer composed of a final concentration of 50 mM HEPES buffer (pH=7.5), 2 mM N7-acetyl-7-aminoheptanoate, 10 mM MgCl2, 1 mM ATP, and 1 mM NADPH. The assays were initiated by adding purified carboxylate reductase and phosphopantetheine transferase or the empty vector control to the assay buffer containing the N7-acetyl-7-aminoheptanoate then incubated at room temperature for 20 min. The consumption of NADPH was monitored by absorbance at 340 nm.

Row | Molecule | acceptance of 7-aminoheptanoate as substrate (conversion of pyruvate to L-alanine), confirmed against the empty vector control [1] | acceptance of pimelate semialdehyde as substrate (conversion of L-alanine to pyruvate), confirmed against the empty vector control [2] | reversibility of the ω-transaminase activity: pimelate semialdehyde accepted, 7-aminoheptanoate synthesized [2] | acceptance of 7-aminoheptanol as substrate (conversion of pyruvate to L-alanine), confirmed against the empty vector control [3] | acceptance of 7-oxoheptanol as substrate forming 7-aminoheptanol [3] | acceptance of N7-acetyl-7-aminoheptanoate as substrate (NADPH consumption), confirmed against the empty vector control [4]
1 | SEQ ID NO: 10: Rhodobacter sphaeroides ω-transaminase, N-terminal HIS tagged | accepted 7-aminoheptanote as substrate | accepted pimelate semialdehyde as substrate | accepted pimelate semialdehyde as substrate and synthesized 7-aminoheptanoate as a reaction product | accepted 7-aminoheptanol as substrate | accept 7-oxoheptanol as substrate and form 7-aminoheptanol | –
2 | SEQ ID NO: 9: Pseudomonas syringae ω-transaminase, N-terminal HIS tagged (protein, listed as Pseudomonas syringae, N-terminal His tag, Pseudomonas syringae ω-transaminase, N-terminal HIS tagged) MSANNPQTLEWQALSSEHHLAPFSDYKQLKEKGPRIITRAEGVYLWDSEGNKILDGMSGLWCVAIGYGREELADAASKQMRELPYYNLFFQTAHPPVLELAKAISDIAPEGMNHVFFTGSGSEGNDTMLRMVRHYWALKGQPNKKTIISRVNGYHGSTVAGASLGGMTYMHEQGDLPIPGVVHIPQPYWFGEGGDMTPDEFGIWAAEQLEKKILELGVENVGAFIAEPIQGAGGVIVPPDSYWPKIKEILSRYDILFAADEVICGFGRTSEWFGSDFYGLRPDMMTIAKGLTSGYVPMGGLIVRDEIVAVLNEGGDFNHGFTYSGHPVAAAVALENIRILREEKIVERVRSETAPYLQKRLRELSDHPLVGEVRGVGLLGAIELVKDKTTRERYTDKGAGMICRTFCFDNGLIMRAVGDTMIIAPPLVISFAQIDELVEKARTCLDLTLAVLQG | accepted 7-aminoheptanote as substrate | accepted pimelate semialdehyde as substrate | accepted pimelate semialdehyde as substrate and synthesized 7-aminoheptanoate as a reaction product | accepted 7-aminoheptanol as substrate | accept 7-oxoheptanol as substrate and form 7-aminoheptanol | –
3 | SEQ ID NO: 7: Chromobacterium violaceum ω-transaminase, N-terminal HIS tagged (protein, listed as Chromobacterium violaceum, N-terminal His tag, Chromobacterium violaceum ω-transaminase, N-terminal HIS tagged) MQKQRTTSQWRELDAAHHLHPFTDTASLNQAGARVMTRGEGVYLWDSEGNKIIDGMAGLWCVNVGYGRKDFAEAARRQMEELPFYNTFFKTTHPAVVELSSLLAEVTPAGFDRVFYTNSGSESVDTMIRMVRRYWDVQGKPEKKTLIGRWNGYHGSTIGGASLGGMKYMHEQGDLPIPGMAHIEQPWWYKHGKDMTPDEFGVVAARWLEEKILEIGADKVAAFVGEPIQGAGGVIVPPATYWPEIERICRKYDVLLVADEVICGFGRTGEWFGHQHFGFQPDLFTAAKGLSSGYLPIGAVFVGKRVAEGLIAGGDFNHGFTYSGHPVCAAVAHANVAALRDEGIVQRVKDDIGPYMQKRWRETFSRFEHVDDVRGVGMVQAFTLVKNKAKRELFPDFGEIGTLCRDIFFRNNLIMRACGDHIVSAPPLVMTRAEVDEMLAVAERCLEEFEQTLKARGLA | accepted 7-aminoheptanote as substrate | – | accepted pimelate semialdehyde as substrate and synthesized 7-aminoheptanoate as a reaction product | accepted 7-aminoheptanol as substrate | accept 7-oxoheptanol as substrate and form 7-aminoheptanol | –
4 | SEQ ID NO: 12: Vibrio fluvialis ω-transaminase, N-terminal HIS tagged (protein, listed as Vibrio fluvialis, N-terminal His tag, Vibrio fluvialis ω-transaminase, N-terminal HIS tagged) MNKPQSWEARAETYSLYGFTDMPSLHQRGTVVVTHGEGPYIVDVNGRRYLDANSGLWNMVAGFDHKGLIDAAKAQYERFPGYHAFFGRMSDQTVMLSEKLVEVSPFDSGRVFYTNSGSEANDTMVKMLWFLHAAEGKPQKRKILTRWNAYHGVTAVSASMTGKPYNSVFGLPLPGFVHLTCPHYWRYGEEGETEEQFVARLARELEETIQREGADTIAGFFAEPVMGAGGVIPPAKGYFQAILPILRKYDIPVISDEVICGFGRTGNTWGCVTYDFTPDAIISSKNLTAGFFPMGAVILGPELSKRLETAIEAIEEFPHGFTASGHPVGCAIALKAIDVVMNEGLAENVRRLAPRFEERLKHIAERPNIGEYRGIGFMWALEAVKDKASKTPFDGNLSVSERIANTCTDLGLICRPLGQSVVLCPPFILTEAQMDEMFDKLEKALDKVFAEVA | accepted 7-aminoheptanote as substrate | accepted pimelate semialdehyde as substrate | accepted pimelate semialdehyde as substrate and synthesized 7-aminoheptanoate as a reaction product | – | – | –
5 | SEQ ID NO: 3: Mycobacterium smegmatis carboxylate reductase, N-terminal HIS tagged (protein, listed as Mycobacterium smegmatis, N-terminal His tag, Mycobacterium smegmatis carboxylate reductase, N-terminal HIS tagged) MTSDVHDATDGVTETALDDEQSTRRIAELYATDPEFAAAAPLPAVVDAAHKPGLRLAEILQTLFTGYGDRPALGYRARELATDEGGRTVTRLLPRFDTLTYAQVWSRVQAVAAALRHNFAQPIYPGDAVATIGFASPDYLTLDLVCAYLGLVSVPLQHNAPVSRLAPILAEVEPRILTVSAEYLDLAVESVRDVNSVSQLVVFDHHPEVDDHRDALARAREQLAGKGIAVTTLDAIADEGAGLPAEPIYTADHDQRLAMILYTSGSTGAPKGAMYTEAMVARLWTMSFITGDPTPVINVNFMPLNHLGGRIPISTAVQNGGTSYFVPESDMSTLFEDLALVRPTELGLVPRVADMLYQHHLATVDRLVTQGADELTAEKQAGAELREQVLGGRVITGFVSTAPLAAEMRAFLDITLGAHIVDGYGLTETGAVTRDGVIVRPPVIDYKLIDVPELGYFSTDKPYPRGELLVRSQTLTPGYYKRPEVTASVFDRDGYYHTGDVMAETAPDHLVYVDRRNNVLKLAQGEFVAVANLEAVFSGAALVRQIFVYGNSERSFLLAVVVPTPEALEQYDPAALKAALADSLQRTARDAELQSYEVPADFIVETEPFSAANGLLSGVGKLLRPNLKDRYGQRLEQMYADIAATQANQLRELRRAAATQPVIDTLTQAAATILGTGSEVASDAHFTDLGGDSLSALTLSNLLSDFFGFEVPVGTIVNPATNLAQLAQHIEAQRTAGDRRPSFTTVHGADATEIRASELTLDKFIDAETLRAAPGLPKVTTEPRTVLLSGANGWLGRFLTLQWLERLAPVGGTLITIVRGRDDAAARARLTQAYDTDPELSRRFAELADRHLRVVAGDIGDPNLGLTPEIWHRLAAEVDLVVHPAALVNHVLPYRQLFGPNVVGTAEVIKLALTERIKPVTYLSTVSVAMGIPDFEEDGDIRTVSPVRPLDGGYANGYGNSKWAGEVLLREAHDLCGLPVATFRSDMILAHPRYRGQVNVPDMFTRLLLSLLITGVAPRSFYIGDGERPRAHYPGLTVDFVAEAVTTLGAQQREGYVSYDVMNPHDDGISLDVFVDWLIRAGHPIDRVDDYDDWVRRFETALTALPEKRRAQTVLPLLHAFRAPQAPLRGAPEPTEVFHAAVRTAKVGPGDIPHLDEALIDKYIRDLREFGLI | – | – | – | – | – | accepted N7-acetyl-7-aminoheptanoate as substrate
